Where no end group is shown, it is not given here. [ ]: non-standard residue; d: D form. The star is where a group is joined. EDDnp = O=[N+]([O-])c1ccc(NCCN*)c([N+](=O)[O-])c1; 2Abz = Nc1ccccc1C(=O)O

One assay addresses protease isolated from Eupenicillium javanicum (metalloprotease, 30 kDa) (Eupenicillium javanicum).
As for [2Abz]KLRSYKQ-EDDnp [Abz-KLRSYKQ-EDDnp], the KM of the hydrolysis of the FRET peptide by the purified protease (Michaelis-Menten, pH 6.0, 45°C) amounted to 0.003 mM.

Consider [2Abz]KLRYSKQ-EDDnp [Abz-KLRYSKQ-EDDnp], for which the KM of the hydrolysis of the FRET peptide by the purified protease (Michaelis-Menten, pH 6.0, 45°C) amounted to 0.007 mM. Take [2Abz]KLRSIKQ-EDDnp [Abz-KLRSIKQ-EDDnp]: the KM of the hydrolysis of the FRET peptide by the purified protease (Michaelis-Menten, pH 6.0, 45°C) was found to be 0.003 mM.

The target is the same in another assay. The source holds these as a separate data set.
Consider [2Abz]VLRSSKQ-EDDnp [Abz-VLRSSKQ-EDDnp], for which the KM of the hydrolysis of the FRET peptide by the purified protease (Michaelis-Menten, pH 6.0, 45°C) turned out to be 0.01 mM. Same read-out and setting: under [2Abz]KLQSSKQ-EDDnp [Abz-KLQSSKQ-EDDnp] stands 0.004 mM.

[2Abz]KFRSSKQ-EDDnp [Abz-KFRSSKQ-EDDnp]: the KM of the hydrolysis of the FRET peptide by the purified protease (Michaelis-Menten, pH 6.0, 45°C) was determined as 0.012 mM.

The values are drawn from article PMC5220088.
